Source: PMC4333420, “REV7 is essential for DNA damage tolerance via two REV3L binding sites in mammalian DNA polymerase ζ” (Nucleic Acids Research, 2015)

Target: T1, His-REV7 (human, UniProt Q9UI95 1-211)
T1 construct: REV7 (MAD2L2), human; amplified from REV7 cDNA with primers from the start codon to the stop codon, cloned into pETDuet-1; Cloned into pETDuet-1 (SalI-NotI); also called His-REV7 fusion protein; source: E. coli, purified
Assay: pull-down; GST-fusion REV3L fragment, His-REV7 and Glutathione-Sepharose 4B beads, 4°C for 4 h in 500 μl of 0.1B; blot with anti-His and anti-GST
Conditions: both partners purified

T1 sequence (Q9UI95 whole entry, the tested form may be a part): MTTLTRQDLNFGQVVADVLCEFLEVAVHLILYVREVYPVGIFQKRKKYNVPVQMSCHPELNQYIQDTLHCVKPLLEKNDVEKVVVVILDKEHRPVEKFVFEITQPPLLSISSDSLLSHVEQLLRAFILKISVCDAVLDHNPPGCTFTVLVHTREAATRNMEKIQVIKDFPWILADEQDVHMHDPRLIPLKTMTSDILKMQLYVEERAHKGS

binding result	Binder
binds	GST-REV3L 1974–2025 (domain or fragment, human, UniProt O60673 1974-2025, looked up, Cloned into pGEX6P-1 (GE Healthcare); source: E. coli, purified) GVVNKGSSNSPKMVEDKKIVIMPCKCAPSRQLVQVWLQAKEEYERSKKLPKT
binds	GST-REV3L 1847–1898 (domain or fragment, human, UniProt O60673 1847-1898, looked up, Cloned into pGEX6P-1 (GE Healthcare); also called positive control; source: E. coli, purified) MLTPTPDSSPRSTSSPSQSKNGSFTPRTANILKPLMSPPSREEIMATLLDHD
